This note sets out measurements from publication doi:10.1101/2022.03.18.484873 (bioRxiv, 2022).

The assay addresses original 2019-nCoV Spike RBD protein (SARS-CoV-2, original 2019-nCoV (Wuhan), UniProt P0DTC2). In words: Luminex bead-based competitive binding assay.

B1: P5C3 human monoclonal antibody (P5C3 LS) (antibody, V domains shown)
VH: QMQLVQSGPEVKKPGTSVKVSCKASGFTFTSSAVQWVRQARGQRLEWIGWIVVGSGNTDYAQQFQERVTITRDMSTSTAYMELSSLGSEDTAVYYCAAPNCSGGSCYDGFDLWGQGTMVTVSS
VL: EIVLTQSPGTLSLSPGERATLSCRGSQSVRSSYLGWYQQKPGQAPRLLIYGASSRATGIPDRFSGSGSGTDFTLTISRLEPEDFAVYYCQQYGSSPWTFGQGTKVEIK
For the molecule B1, the binding result is given as “binds”.

B2: P2G3 human monoclonal antibody (P2G3 LS, human IgG1) (antibody, V domains shown)
VH: EVQLVESGGGLVQPGRSLRLSCAASGFRFDDYALHWVRQAPEKGLEWVSGISWNSNNIGYAESVKGRFTISRDTAKKSLYLQMNDLRAEDTALYYCVKDRHYDSSGYFVNGFDIWGQGTLVTVSA
VL: DIQLTQSPSFLSASVGDRVTVTCRASQGISSYVAWYQQKAGKAPTLLIYTASTLQSGVPSRFSGSGSGTEFTLTISSLQPEDFATYYCQQLHSYPVTFGQGTRLDIE
Consider B2, for which the binding result is recorded as “binds”.
